Consider one substance from US20180155698.

The target of data set [1] is DSA polymerase K276C,Q451C (Bacillus stearothermophilus) (UniProt Q04957). The data set can be described thus: BLI. The following applies: first round 1.75 vs 0.9; second round after incorporation 1.60; 300 nM, 100 mM KCl, 320 mM K-glutamate, 2 mM SrCl2; lower binary and ternary signal than CBT in …; scale: ratio correct to highest incorrect signal.
Data set [2] addresses TEE polymerase K276C,Q307E,Q451C (Bacillus stearothermophilus) (UniProt Q04957). In words: BLI. The conditions noted are these: first round 1.10 vs 0.4; second round after incorporation 4.83; very low binary signal; 900 nM, 100 mM KCl, 320 mM K-glutamate, 2 mM SrCl2; scale: ratio correct to highest incorrect signal.

For “primed template, next correct nucleotides AT (Examples 3 and 5)”, the binding signal in data set [1] was determined as 1.95; in data set [2], 2.75.
